Assay results reported in publication PMC8839947, “Highly Sensitive RNA-Based Electrochemical Aptasensor for the Determination of C-Reactive Protein Using Carbon Nanofiber-Chitosan Modified Screen-Printed Electrode”.

Molecular target: T1, C-reactive protein (CRP) (UniProt P02741 19-224)
T1 sequence: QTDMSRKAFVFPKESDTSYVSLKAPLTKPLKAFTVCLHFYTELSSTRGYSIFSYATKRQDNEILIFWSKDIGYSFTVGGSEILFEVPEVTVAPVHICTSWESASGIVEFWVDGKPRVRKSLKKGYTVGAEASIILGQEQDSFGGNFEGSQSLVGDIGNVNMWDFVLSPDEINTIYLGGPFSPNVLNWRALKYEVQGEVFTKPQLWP
Test: square-wave voltammetry (Langmuir isotherm, MB signal-off electrode); 2 mM CaCl2; 60 min incubation; KL 1.07 pM-1; CRP incubation in 0.1 M Tris pH 7.4, 2 mM CaCl2, 60 min; SWV read-out in PBS (0.1 M, pH 7.4); BSA-blocked electrode; incubation temperature not stated (298 K used in calculations)
Conditions: protein: commercial; chain copies: 5; label: methylene blue self-assembled (non-covalent); immobilized via glutaraldehyde on CNFs-chitosan carbon screen-printed electrode

B1: CRP RNA aptamer (5'-amino) (structured_RNA)
RNA: GCCUGUAAGGUGGUCGGUGUGGCGAGUGUGUUAGGAGAGAUUGC
modifications: 5'-NH2-(CH2)6
  Kd: 0.93 pM
